For assay [1], the target named is T1, comparison structure: the same structure without the CADM1 peptide (Myc tag, hinge, transmembrane domain, …).
T1 construct: also called 비교군 구조; CADM1 펩타이드를 포함하지 않는 세포
Nature of the assay: flow cytometry, 1 ug scFv on 5x10^5 cells with the structure without the CADM1 peptide, PE anti-HA. In general terms: A flow cytometer gives signals particle by particle.

The target in assay [2] is T2, CADM1 peptide expressed on SBC-5 small cell lung cancer cells (CADM1-SBC-5); peptide - transmembrane domain - … (human).
T2 construct: also called CADM1 펩타이드를 발현하는 SBC-5 세포
T2 sequence (Q9BY67 whole entry, looked up): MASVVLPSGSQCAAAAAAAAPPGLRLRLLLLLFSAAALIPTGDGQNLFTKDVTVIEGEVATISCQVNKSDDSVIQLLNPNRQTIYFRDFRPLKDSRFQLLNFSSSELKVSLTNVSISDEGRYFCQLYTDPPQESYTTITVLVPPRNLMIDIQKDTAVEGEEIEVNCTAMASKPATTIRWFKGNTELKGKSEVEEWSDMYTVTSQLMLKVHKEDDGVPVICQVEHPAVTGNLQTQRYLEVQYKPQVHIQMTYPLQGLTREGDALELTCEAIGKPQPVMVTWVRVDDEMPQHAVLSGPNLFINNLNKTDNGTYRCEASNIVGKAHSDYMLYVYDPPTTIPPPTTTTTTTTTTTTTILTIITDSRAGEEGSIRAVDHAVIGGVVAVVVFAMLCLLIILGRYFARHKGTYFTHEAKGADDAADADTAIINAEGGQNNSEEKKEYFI
Nature of the assay: flow cytometry, 1 ug scFv on 5x10^5 SBC-5 cells expressing the CADM1 peptide, PE anti-HA.

In assay [3] the target is T3, BSA-conjugated mouse CADM1 peptide (mouse, also: conjugated to BSA via added C-terminal Cys).
T3 construct: also called mouse peptide
T3 peptide: DSRAGEEGTIGAVDHC(BSA)
Description: ELISA, scFv titrated on coated BSA-conjugated mouse CADM1 peptide, anti-HA-HRP, OD450.

Assay [4] deals with T4, BSA-conjugated human CADM1 peptide (human, also: conjugated to BSA via added C-terminal Cys).
T4 construct: also called human peptide; rhCADM1 peptide
T4 peptide: DSRAGEEGSIRAVDHC(BSA)
Description: ELISA, scFv titrated on coated BSA-conjugated human CADM1 peptide, anti-HA-HRP, OD450. A general note: In an ELISA, binding on a coated surface is turned into a signal by an enzyme label.

Where no end group is shown, it is not given here.

B1: RH6 (scFv, V domains shown)
VH: AVTLDESGGGLQTPGGGLSLVCKGSGFTFSSYAMNWVRQAPGKGLEFVAQITSSGRYTYYGTAVKGRATISRDNGQSTVRLQLNNLRAEDSGTYYCAKDAAAGYYDGATAGDIDAWGHGTEVIVSS
VL: VTQPSSVSANPGESVKITCSGGSYSYGWYQQKSPGSAPVTVIYSNNQRPSNIPSRFSGSTSGSTSTLTITGVQADDEAVYFCGTFDSSTNAAFGAGTTLTVL
notes: Tested as purified scFv with His tag and HA tag; chicken immune library
As for B1, the 결합력 (%) is 0.7% in assay [1] and 10% in assay [2]. For the same molecule, the Bmax worked out at 2.4 in assay [3] and 4.16 in assay [4]. Besides, the Kd is 124 nM in assay [3] and 5.58 nM in assay [4].

For orientation: Kd means the free concentration of one partner at which half of the binding sites on the other are occupied at equilibrium, for simple one-to-one binding. High values mean weaker binding, low ones tighter binding.

Values taken from patent publication KR20220167207A (dated 2022).
